Reference: patent US8048999B2, “Nuclear reprogramming factor” (Kyoto University, priority 2005, dated 2011)

B1: SCF: cytokine permanently expressed by STO feeder cells transduced with pMX expression vector (protein, UniProt P20826 26-190, looked up)
Soluble KIT ligand: KEICGNPVTDNVKDITKLVANLPNDYMITLNYVAGMDVLPSHCWLRDMVIQLSLSLTTLLDKFSNISEGLSNYSIIDKLGKIVDDLVLCMEENAPKNIKESPKRPETRSFTPEEFFSIFNRSIDAFKDFMVASDTSDCVLSSTLGPEKDSRVSVTKPFMLPPVAA
B2: bFGF: cytokine permanently expressed by STO feeder cells transduced with pMX expression vector (protein, UniProt P15655 10-154, looked up)
Fibroblast growth factor 2: PALPEDGGAAFPPGHFKDPKRLYCKNGGFFLRIHPDGRVDGVREKSDPHVKLQLQAEERGVVSIKGVCANRYLAMKEDGRLLASKCVTEECFFFERLESNNYNTYRSRKYSSWYVALKRTGQYKLGSKTGPGQKAILFLPMSAKS

Tests used:
[1] = tested on: Nanog-EGFP-IRES-Puro mouse MEFs; test: iPS cell establishment with Nanog-GFP reporter, puromycin selection; assay type: cell-based; settings: 4 factors; PD98059 final concentration 25 μM continuously added from the next day of transfection
Excerpt: Studies were made as to whether iPS cells could be established with a reporter other than Fbx15-βgeo. […] artificial chromosome (BAC) containing the Nanog gene in the center was isolated, and then the GFP gene and the puromycin resistance gene were knocked in by recombination in E. coli (FIG. 12A). Subsequently, the above modified BAC was introduced into ES cells to confirm that the cells became GFP-positive in an undifferentiated state specific manner (data not shown). Then, these ES cells were transplanted in mouse blastocysts to create transgenic mice via chimeric mice. In these mice, GFP-positive cells were specifically observed in inner cell masses of the blastocysts or gonads of embryos at 13.5 days after fertilization (FIG. 12B). The gonads were removed from the embryos at 13.5 days after fertilization (hybrid of DBA, 129, and C57BL/6 mice), and MEFs were isolated. The isolated MEFs were confirmed to be GFP-negative (FIG. 13) by flow cytometry. These MEFs were retrovirally transduced with the 4 factors and subjected to puromycin selection, and as a result, a plural number of resistant colonies were obtained. Only about 10 to 20% of the colonies were GFP-positive. When the GFP-positive colonies were passaged, they gave morphology (FIG. 14) and proliferation (FIG. 15) similar to those of ES cells. […]

[2] = tested on: MEFs derived from the Fbx15^βgeo/βgeo mouse; test: Effect of cytokine-producing STO feeder cells on iPS cell establishment (G418 selection); assay type: cell-based; settings: 3 factors other than c-Myc transduced
Excerpt: An effect of cytokine on iPS cell establishment was investigated. Expression vector (pMX retroviral vector) for basic fibroblast growth factor (bFGF) or stem cell factor (SCF) was transduced into feeder cells (STO cells) to establish cells permanently expressing the cytokines. […] As a result, the number of formed colonies increased 20 times or higher on the STO cells producing bFGF (FIG. 11) or SCF (data not shown), as compared with the culture on normal STO cells.

Molecule | percentage of GFP-positive colonies [1] [%] | colony formation with the 3 factors other than c-Myc on cytokine-producing STO cells [2]
COc1cccc(-c2cc(=O)c3ccccc3o2)c1N [PD98059] | 45 | –
B1 | – | colony formation was observed
B2 | – | colony formation was observed
